Experimental data as given in patent publication US20190100591A1 (ITEOS BELGIUM, published 2019).
Where a chain is given by its changes, count along the chain named.

B1: anti-TIGIT antibody clone 26486 (antibody, V domains shown)
VH: QVQLQESGPGLVKPSETLSLTCAVSGYSISSGYYWAWIRQPPGKGLEWIGSIYHSGSTYYNPSLKSRVTISVDTSKNQFSLKLSSVTAADTAVYYCAIEGANYYDFGYVAFDIWGQGTMVTVSS
VL: EIVMTQSPATLSVSPGERATLSCRASQSVSSNLAWYQQKPGQAPRLLIYGASTRATGIPARFSGSGSGTEFTLTISSLQSEDFAVYYCQQSPPWPRTFGGGTKVEIK
B2: anti-TIGIT antibody clone 29494 (antibody, V domains shown)
VH: QVQLQESGPGLVKPSETLSLTCTVSGGSISSGSYYLAWIRQPPGKGLEWIGSIFRSGSTYYNPSLESRVTISVDTSKNQFSLKLSSVTAADTAVYYCAIEGANFKDFGYVAFDIWGQGTMVTVSS
VL: B1 VL
B3: anti-TIGIT antibody clone 29499 (antibody, V domains shown)
VH: B2 VH with V2L, G32S, S33R, L36W, F54G, R55T, E66K, A90T, K105R
VL: B1 VL
B4: anti-TIGIT antibody clone 29513 (antibody, V domains shown)
VH: QVQLVQSGAEVKKPGSSVKVSCKASGGTFQNYAISWVRQAPGQGLEWMGVIVPIFGTANYAQKFQGRVTVTADESTSTAYMELSSLRSEDTAVYYCARLHLGQKAYYGMDVWGQGTTVTVSS
VL: DIQMTQSPSSLSASVGDRVTITCRASQSISSYLNWYQQKPGKAPKLLIYAASSLQSGVPSRFSGSGSGTDFTLTISSLQPEDFATYYCQQRYVFPPTFGGGTKVEIK
B5: anti-TIGIT antibody clone 26493 (antibody, V domains shown)
VH: EVQLVESGGGLVQPGRSLRLSCAASGFTFGDYAMHWVRQAPGKGLEWVSGITWNSGSIGYADSVKGRFTISRDNAKNSLYLQMNSLRAEDTALYYCAKPVPKSRGLDVWGQGTMVTVSS
VL: DIQLTQSPSSVSASVGDRVTITCRASQGISSWLAWYQQKPGKAPKLLIYGASSLQSGVPSRFSGSGSGTDFTLTISSLQPEDFATYYCQQAFYLPWTFGGGTKVEIK
B6: anti-TIGIT antibody clone 29520 (antibody, V domains shown)
VH: B5 VH with E1Q, G30R, S57L, K102R, S103L
VL: B5 VL
B7: anti-TIGIT antibody clone 29523 (antibody, V domains shown)
VH: EVQLVESGGGVVQPGRSLRLSCAASGFTFGSYYMHWVRQAPGKGLEWVAVIWPDGSNKLYADSVKGRFTISRDNSKNTLYLQMNSLRAEDTALYYCAKPVPKSRALDVWGQGTMVTVSS
VL: B5 VL
B8: anti-TIGIT antibody clone 29527 (antibody, V domains shown)
VH: B7 VH with E1Q, G30S, Y32S, W52G, P53A, L59Y, K65E, K102R, S103R, A105G
VL: B5 VL
B9: anti-TIGIT antibody clone 31288 (antibody, V domains shown)
VH: B2 VH with V2L, M120T
VL: B1 VL
B10: anti-TIGIT antibody clone 32931 (antibody, V domains shown)
VH: B2 VH with V2L, M120T
VL: B1 VL with Q27K, G50F, S91T, P92S
B11: anti-TIGIT antibody 313M32 (antibody, V domains shown)
VH: QVQLQESGPGLVKPSETLSLTCAVSGYSITSDYAWNWIRQPPGKGLEWIGYISYSGSTSYNPSLRSRVTISRDTSKNQFFLKLSSVTAADTAVYYCARRQVGLGFAYWGQGTLVTVSS
VL: DIQMTQSPSSLSASVGDRVTITCKASQDVSTAVAWYQQKPGKAPKLLIYSASYRYTGVPSRFSGSGSGTDFTFTISSLQPEDIATYYCQQHYSTPWTFGGGTKVEIK

Assays:
[1] = target: Polyspecificity Reagent (PSR); test: flow cytometry, IgG presented on yeast, biotinylated PSR, normalised MFI
[2] = target: T1, recombinant human TIGIT protein (human, UniProt Q495A1 22-141, limits assumed); test: Biacore T200 SPR, IgG captured, steady state model
T1 construct: also called hTIGIT (Creative Biomart); antigen
T1 sequence (looked up): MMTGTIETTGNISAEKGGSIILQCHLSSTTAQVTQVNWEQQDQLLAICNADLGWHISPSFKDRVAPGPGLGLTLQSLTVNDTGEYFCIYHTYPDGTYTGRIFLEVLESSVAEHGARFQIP

[3] = target: T2, human TIGIT expressed on cells (human, UniProt Q495A1 22-244); test: FACS competition on Jurkat-hTIGIT; competitor CD155-His 15 ug/ml
T2 construct: whole, on cells; on Jurkat E6.1 cells transduced with human TIGIT, on Promega TIGIT effector cells or on human primary T cells; the cell is named under assay; also called hTIGIT; Jurkat-hTIGIT
T2 sequence (looked up): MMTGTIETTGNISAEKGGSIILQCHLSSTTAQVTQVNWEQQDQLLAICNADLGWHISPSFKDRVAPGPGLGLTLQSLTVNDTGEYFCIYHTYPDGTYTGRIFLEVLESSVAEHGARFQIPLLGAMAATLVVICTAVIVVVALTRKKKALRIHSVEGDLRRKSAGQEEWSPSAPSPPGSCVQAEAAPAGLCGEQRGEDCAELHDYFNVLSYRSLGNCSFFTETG

[4] = target: T2, human TIGIT expressed on cells; test: flow cytometry, Jurkat-hTIGIT, MFI; end of the range tied to 313M32 by Table 16
[5] = target: T2, human TIGIT expressed on cells; test: flow cytometry, CD8+ T cells from cancer patient PBMC, MFI on TIGIT+CD8+
Description: Cells were distributed at 1×10^5 cells per well. […] Then, cells were washed and incubated with the following antibodies and life viability dye (LVD) mix: anti-CD4-PercP-Cy5.5 (clone A161A1, BioLegend 357414); anti-CD8-BV510 (clone SK1, BD Bioscience 563919) and LVD efluor 520 (eBioscience 65-0867-14). Cells were washed and fixed and surface staining was quantified using BD LSR Fortessa. Flow cytometry data was analysed using FlowJo V10.1. TIGIT MFI on gated LVD-TIGIT+CD8+ cells was used to calculate EC50 values.

[6] = target: T2, human TIGIT expressed on cells; test: flow cytometry, Jurkat-hTIGIT, MFI
Description: Antibodies were incubated with the cells for 20 min at 4° C. in FACS buffer. […] Fluorescence intensity was analysed using LSR BD Fortessa and cell binding was recorded as the median fluorescence intensity of PE in cells expressing TIGIT at their surface.
The half-maximal concentration of binding (EC50) to Jurkat-hTIGIT was calculated using a four-variable curve-fit equation in Prism.

[7] = target: T2, human TIGIT expressed on cells; test: flow cytometry, human primary CD8+ T cells (healthy PBMC), MFI on TIGIT+CD8+

Binder	Polyspecificity Reagent (PSR) Score (0-1) [1]	other results
B1	0 score (0-1)	–
B2	0 score (0-1)	–
B3	0.1 score (0-1)	–
B4	0.01 score (0-1)	–
B5	0 score (0-1)	–
B6	0.32 score (0-1)	–
B7	0.12 score (0-1)	–
B8	0.12 score (0-1)	–
B9	0 score (0-1)	–
B10	0 score (0-1)	–
B11	–	Kd [2]: 10.1 nM; Fold change of IC50 over IC50 of best clone (31282_up) [3]: 16.7 fold; IC50 [3]: 0.65 nM; EC50 [4]: 0.445 nM; EC50 [5]: 1 nM; Fold change of EC50 over EC50 of best clone (31282) [5]: 8.3 fold; EC50 [6]: 0.44 nM; Fold change of EC50 over EC50 of best clone (31282_wu) [6]: 4.2 fold; EC50 [7]: 1.45 nM; Fold change of EC50 over EC50 of best clone (31282_wu) [7]: 7.5 fold
